In article PMC10639053:
One block for each substance: values may come before it.

Columns and labels:
6xHis-MBP–BARD1^425–777 = 6xHis-MBP–BARD1^425–777 (UniProt Q99728); experiment: MST; settings: read at the highest titrant concentration (4000 nM 6xHis-MBP–BARD1ARD-BRCTs); 20 nM 5′ FAM-labelled nucleosomes; amplitude-normalised; mean of three …; parent: est. 10; read off a plot
[1] = target: human Flag-BRCA1^ΔExon11:6xHis-FL BARD1 complex, P38398-5;Q99728; experiment: MST; settings: read at the highest titrant concentration (2000 nM Flag-BRCA1ΔExon11:6xHis–BARD1); 20 nM 5′ FAM-labelled nucleosomes; amplitude-normalised; mean of three …; parent: est. 14; read off a plot
[2] = system: BRCA1 deltaExon11;BARD1 full length (human;human); experiment: MST; settings: Kd in Table S2, not in material, EMSA: 50 mM Tris pH 7.5, 150 mM NaCl, 0.02% NP40, 0.1 mg/ml BSA, 10% glycerol, 1 mM DTT, 8% sucrose, on ice 1 h, MST: 50 mM HEPES pH 7.5, 150 mM NaCl
[3] = target: unmodified mono-nucleosome (human) (UniProt P0C0S8); experiment: MST; 5' FAM-labelled nucleosomes (20 nM) with a dilution series of protein (0.122-4000 nM or 0.122-2000 nM), 50 mM HEPES pH 7.5, 150 mM NaCl, 0.1 mg/ml BSA, 10% glycerol, 0.02% NP40, 1 mM DTT, room temperature 30 min; one-site total binding fit

response (Fnorm [1/1000]) (6xHis-MBP–BARD1^425–777): 1.5 | response (Fnorm [1/1000]) [1]: 5.7
Substance: unmodified mono-nucleosome (from UniProt P0C0S8;P33778;P68431;P62805) H2A:E61A; H2A:E91A; H2A:E92A; H2B:E105A

Substance: unmodified mono-nucleosome
fold affinity relative to BARD1 ARD-BRCTs (fold affinity vs BARD1 ARD-BRCTs) [2]: 2

affinity relative to BARD1^ARD-BRCTs, fold [3]: 2 fold
Substance: human Flag-BRCA1^ΔExon11:6xHis-FL BARD1 complex (from UniProt P38398-5 1-721; Q99728 1-777)
